Results on three molecules are retold here after US12037595B2, “Rust resistance gene” (Commonwealth Scientific and Industrial Research Organisation, priority 2013, dated 2024).

In series [1] the target is T1, Wheat Lr67 (susceptible) protein, Lr67(sus), SUT sugar transporter, SEQ ID NO:4 (Triticum aestivum, UniProt W5ELX6).
T1 construct: D-genome copy) in pRS416 with ADH1 promoter, expressed in S. cerevisiae EBY.VW4000 (hexose transport deficient)
T1 sequence (W5ELX6 1-514): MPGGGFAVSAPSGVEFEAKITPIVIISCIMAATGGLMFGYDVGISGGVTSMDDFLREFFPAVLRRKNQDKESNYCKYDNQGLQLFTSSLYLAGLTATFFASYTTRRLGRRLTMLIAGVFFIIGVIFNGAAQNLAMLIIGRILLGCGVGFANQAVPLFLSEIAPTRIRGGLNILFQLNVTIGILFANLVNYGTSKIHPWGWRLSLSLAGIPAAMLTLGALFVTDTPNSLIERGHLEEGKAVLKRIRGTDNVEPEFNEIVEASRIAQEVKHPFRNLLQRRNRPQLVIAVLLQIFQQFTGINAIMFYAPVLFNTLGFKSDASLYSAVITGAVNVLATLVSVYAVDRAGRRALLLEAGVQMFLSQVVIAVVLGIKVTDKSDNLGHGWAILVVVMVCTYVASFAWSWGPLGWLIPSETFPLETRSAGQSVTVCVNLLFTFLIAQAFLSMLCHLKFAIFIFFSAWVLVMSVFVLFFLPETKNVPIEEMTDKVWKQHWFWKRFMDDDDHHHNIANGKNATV
The series is described as follows: Concentration-dependent uptake of [14C] glucose in yeast expressing Lr67(sus). The format is cell-based. The settings on record: [14C] glucose uptake; Lr67(sus) expressed in hexose transport deficient Saccharomyces cerevisiae EBY.VW4000; Lineweaver-Burk linear regression. The protocol: The following experiments were completed using the protein coding regions for the Lr67 polypeptides (resistant and susceptible alleles) cloned into the yeast expression vector pRS416. This vector contained the constitutive ADH1 promoter and CYC1 terminator for expression of the inserted coding regions. The yeast strain employed was a hexose transport deficient variant of Saccharomyces cerevisiae named EBY.VW4000. Uptake was determined using radio labelled [^14C] glucose with incorporation radio-assayed by liquid scintillation counting.
(§1) The Lineweaver-Burk equation was used to convert data for linear regression analysis.

Substrate in series [2]: OC[C@H]1OC(O)[C@H](O)[C@@H](O)[C@@H]1O
Briefly: cells, lysate or membranes. Conditions: other: [14C] glucose uptake; Lr67(sus) expressed in hexose transport deficient Saccharomyces cerevisiae EBY.VW4000; Lineweaver-Burk linear regression.

Series [3] has as its system hexose transport deficient variant of Saccharomyces cerevisiae named EBY.VW4000. The series is described as follows: Glucose uptake by yeast cells expressing Lr67 polypeptides, radio labelled [14C] glucose. The format is cell-based. Conditions: 100 μM [14C] glucose for 10 minutes, tested at 2 minute intervals, vs empty vector, FIG. 11.
Source text: The following experiments were completed using the protein coding regions for the Lr67 polypeptides (resistant and susceptible alleles) cloned into the yeast expression vector pRS416. This vector contained the constitutive ADH1 promoter and CYC1 terminator for expression of the inserted coding regions. The yeast strain employed was a hexose transport deficient variant of Saccharomyces cerevisiae named EBY.VW4000.
as §1

For `OC[C@H]1OC(O)[C@H](O)[C@@H](O)[C@@H]1O` (stereo partly shown) [glucose], the Vmax in series [1] stood at 3.02 nmol min^−1 g FW^−1.

B1: Wheat Lr67 (susceptible) protein, Lr67(sus), SUT sugar transporter, SEQ ID NO:4 (Triticum aestivum) (protein)
chain: MPGGGFAVSAPSGVEFEAKITPIVIISCIMAATGGLMFGYDVGISGGVTSMDDFLREFFPAVLRRKNQDKESNYCKYDNQGLQLFTSSLYLAGLTATFFASYTTRRLGRRLTMLIAGVFFIIGVIFNGAAQNLAMLIIGRILLGCGVGFANQAVPLFLSEIAPTRIRGGLNILFQLNVTIGILFANLVNYGTSKIHPWGWRLSLSLAGIPAAMLTLGALFVTDTPNSLIERGHLEEGKAVLKRIRGTDNVEPEFNEIVEASRIAQEVKHPFRNLLQRRNRPQLVIAVLLQIFQQFTGINAIMFYAPVLFNTLGFKSDASLYSAVITGAVNVLATLVSVYAVDRAGRRALLLEAGVQMFLSQVVIAVVLGIKVTDKSDNLGHGWAILVVVMVCTYVASFAWSWGPLGWLIPSETFPLETRSAGQSVTVCVNLLFTFLIAQAFLSMLCHLKFAIFIFFSAWVLVMSVFVLFFLPETKNVPIEEMTDKVWKQHWFWKRFMDDDDHHHNIANGKNATV
The Km is the substrate concentration at which the rate is half of its maximum. B1: in series [2], the Km is 73 µM. Further, in series [3], the “Glucose uptake over time” value is listed as “capable of transporting glucose at a higher rate than yeast cells expressing the Lr67 resistant allele or empty vector”.

B2: Lr67(res): Wheat Lr67 (resistant) protein, 514 amino acids, arginine at position 144 and leucine at position 387 (protein, listed as Triticum aestivum)
chain: MPGGGFAVSAPSGVEFEAKITPIVIISCIMAATGGLMFGYDVGISGGVTSMDDFLREFFPAVLRRKNQDKESNYCKYDNQGLQLFTSSLYLAGLTATFFASYTTRRLGRRLTMLIAGVFFIIGVIFNGAAQNLAMLIIGRILLRCGVGFANQAVPLFLSEIAPTRIRGGLNILFQLNVTIGILFANLVNYGTSKIHPWGWRLSLSLAGIPAAMLTLGALFVTDTPNSLIERGHLEEGKAVLKRIRGTDNVEPEFNEIVEASRIAQEVKHPFRNLLQRRNRPQLVIAVLLQIFQQFTGINAIMFYAPVLFNTLGFKSDASLYSAVITGAVNVLATLVSVYAVDRAGRRALLLEAGVQMFLSQVVIAVVLGIKVTDKSDNLGHGWAILLVVMVCTYVASFAWSWGPLGWLIPSETFPLETRSAGQSVTVCVNLLFTFLIAQAFLSMLCHLKFAIFIFFSAWVLVMSVFVLFFLPETKNVPIEEMTDKVWKQHWFWKRFMDDDDHHHNIANGKNATV
Take B2: in series [3], the “Glucose uptake over time” value is “did not show detectable glucose transport activity above the control”.
